The values that follow come from patent US20030108548A1 (TOLERANCE THERAPEUTICS, published 2003).

Residue numbers refer to the chain shown, from its start.

Test [1] has as its target human FcR I and FcR II on cells. Put plainly: 125I-human IgG on U937 cells in the absence of inhibitor.
The target in test [2] is T1, human CD3 complex (human, UniProt P07766 23-207).
T1 construct: whole, on cells; In all assays the target stood on cells as the whole TCR/CD3 complex; also called CD3 antigen; TCR complex
The test is described as follows: competition against FITC-mOKT3 tracer on human PBMC, flow cytometry; affinity calculated from the competitor concentration at half-maximal tracer binding (FIG. 3A).

Test [3] deals with human FcR I and FcR II on cells. The test is described as follows: competitive inhibition of PE-murine IgG2a or 125I-human IgG binding to U937 cells.
The target in test [4] is T1, human CD3 complex. Put plainly: competition against FITC-mOKT3 tracer on human PBMC, flow cytometry; affinity calculated from the competitor concentration at half-maximal tracer binding (FIG. 3B).

With 125I-labelled human IgG (antibody), in test [1], the maximum binding was 2750 cpm and the maximum binding as percent of the total radioactivity added amounted to 15%.

B1: gOKT3-5 (antibody, human IgG4, V domains shown)
VH: QVQLVQSGGGVVQPGRSLRLSCKASGYTFTRYTMHWVRQAPGKGLEWIGYINPSRGYTNYNQKVKDRFTISTDKSKSTAFLQMDSLRPEDTAVYYCARYYDDHYCLDYWGQGTPVTVSS
VL: DIQMTQSPSSLSASVGDRVTITCSASSSVSYMNWYQQTPGKAPKRWIYDTSKLASGVPSRFSGSGSGTDYTFTISSLQPEDIATYYCQQWSSNPFTFGQGTKLQITR
notes: Humanized OKT3, human IgG4/kappa; also called gLC/gHA; gOKT3-5(γ4); not shown: human IgG4 heavy chain constant region; human kappa light chain constant region
Take B1: the Ka with human CD3 complex [2] was 1.1e+09 M⁻¹. The molecule further had a fold higher concentration for the same inhibition, against murine OKT3 in test [3] of 10 fold.

B2: gOKT3-7(γ4) (antibody, V domains shown)
VH: B1 VH with T72R, K74N, S77N, A92G, Y95F
VL: B1 VL
In the case of B2, the Ka with human CD3 complex [4] is 1.4e+09 M⁻¹.
